One molecule from patent publication US20030219839A1 (published 2003) can be followed below.

As a reminder, the Kd is the free concentration of one partner at which half of the binding sites on the other are occupied at equilibrium, for simple one-to-one binding. For orientation: koff means the first-order rate constant of dissociation. The kon is the rate constant with which the complex forms.

One test concerns the target rat PDGF BB (rat, UniProt Q05028 74-182). The experiment in a line: solid phase ELISA: plate coated with the named form of PDGF, serial dilutions of mouse C1 Fab (axis in dilutions 1/x, no mass unit), OD.
Test [1] concerns the target T1, recombinant human platelet derived growth factor (PDGF-BB) (human, UniProt P01127 82-190).
T1 construct: also called human PDGF-BB; PDGF-BB cytokine
The experiment in a line: BIAcore SPR, cytokine immobilised via primary amines, antibody as analyte. As to the method: BIAcore analysis of the original and humanized anti-PDGF clones was performed according to standard procedures. The cytokine was immobilized on the BIAchip by chemical linking via primary amines and the binding behavior of the antibodies was analyzed over 30 min.

The target in test [2] is T1, recombinant human platelet derived …. The experiment in a line: competition ELISA: antibody pre-incubated with 10 ng/ml PDGF-BB, then added to a plate coated with PDGF receptor beta/Fc; receptor-bound PDGF-BB detected by biotinylated anti-PDGF-BB antibody and streptavidin-alkaline phosphatase, OD405; blocked partner: PDGF receptor beta/Fc. As to the method:
The ability of the rabbit scFvs to compete with the PDGF-1 receptor for binding to the PDGF-BB cytokine was determined in a competition assay. Binding of the scFvs to their target epitope on the PDGF-BB cytokine prevents PDGF-BB binding to the PDGF receptor coated on the plates. High protein binding 96-well plates were coated with 10 ng/well of recombinant human PDGF receptor beta/Fc chimera (R&D Systems, MN) in PBS overnight at 4° C. The plates were blocked with 5% sucrose/1% BSA/PBS for 1 h at 37° C. Serial dilutions of purified anti-PDGF-BB antibody were incubated with 10 ng/ml of recombinant human PDGF-BB at room temperature for 30 minutes before being added to the blocked and washed plates. After 2 h at room temperature, the plates were washed with PBS/0.05% Tween followed by another 2-hour incubation with biotinylated anti-PDGF-BB antibody (R&D Systems, MN) at room temperature. Next, streptavidin-alkaline phosphatase (Pierce, Rockford, Ill.) was added to the plates and incubated for 30 minutes at room temperature. The plates were washed 3×with PBS/0.05% Tween and 3× with PBS. Sigma 104 substrate suspended in PNPP buffer was added after the final wash step and the signal at OD405 was determined. […] F3 was then selected for humanization.

T1 sequence (P01127 82-190): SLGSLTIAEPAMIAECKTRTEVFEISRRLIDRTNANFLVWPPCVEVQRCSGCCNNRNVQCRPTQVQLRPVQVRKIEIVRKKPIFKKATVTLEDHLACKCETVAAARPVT
Sequence of rat PDGF BB (Q05028 74-182): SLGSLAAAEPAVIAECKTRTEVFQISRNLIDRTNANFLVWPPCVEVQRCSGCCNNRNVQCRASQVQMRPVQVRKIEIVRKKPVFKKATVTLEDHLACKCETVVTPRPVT

B1: C1 mouse anti-PDGF Fab (Fab, V domains shown)
VH: QVLLEQSGSELVRPGASVKLSCKASGYTFTSTWMNWVKKRPDQGLEWIGRIDPYDSETHYNQKFKDKAILTVDKSSSTAYMQLSRLTSEDSAVYYCARGGHMITPAMDYWGQGTSVTVSS
VL: VQVLTQSPAIMSASPGEKVTITCTASSSVSYMHWFQQKPGTSPKLLIYSASNLASGVPARFSGSGSGTSYSLTISRMEAEDAATYYCQQRSSYPWTFGGGTKLEIKR
notes: Mouse light chain and heavy chain Fd cloned in phagemid pRL4; purified over a Ni column; detected by an HA tag; also called mouse C1; murine antibody C1
In the case of B1, the binding result with rat PDGF BB was “no binding”. Further, in test [1], the Ka is 2.31e+09 M⁻¹, the Kd was 0.433 nM, the dissociation rate constant (koff) was 4.62e-05 s⁻¹ and the on-rate (kon) is 107000 M⁻¹ s⁻¹. In test [2], the “IC50 (read off the curve)” value was approximately 0.4 µg/mL.
